From patent publication US20260098270
pKd: −log10 of the molar value. Where two headings read alike, the source gives them in different places.

Assays:
Troponin I (cardiac) = Troponin I (cardiac) (UniProt P19429); assay: filter
[1] = biological target: Influenza hemagglutinin H3N2-HA (Influenza A virus) (UniProt P03438); assay: BLI
[2] = biological target: Influenza hemagglutinin H3N2-HA (Influenza A virus) (UniProt P03438); assay: filter; settings: dot blot
[3] = biological target: Influenza hemagglutinin H1N1-HA (Influenza A virus) (UniProt Q289M7)
[4] = biological target: Influenza hemagglutinin H5N1-HA (Influenza A virus) (UniProt Q8QPL1); assay: filter
[5] = system: Control lentivirus without spike; assay: filter; settings: three identical arms joined by Trebler, dot blot

Question: With “GGCAGCAGGAAGACAAGACATGGGTGGCGGGGACGGGGCGATGGGAACTTAGATTGCTAGTGGTTCTGTGGTTGCTCTGT [TnAp1]” as the sequence, how does the pKd (Troponin I (cardiac)) read?
Answer: Its pKd is 6.90.

Question: “GGCAGCAGGAAGACAAGACATGGGTGGCGGGGACGGGGCGATGGGAACTTAGATTGCTAGTGGTTCTGTGGTTGCTCTGTTTTTTCTCTCGC [Trimeric (trident) TnAp1]” was tested. Which pKd (Troponin I (cardiac); three identical arms joined by Trebler, root TTTTT-Biotin) did it give?
Answer: The pKd was 8.40.

Question: With “GGGTTTGGGTTGGGTTGGGTTTTTGGGTTTGGGTTGGGTTGGGAAAAA [RHA06]” as the sequence, how does the pKd [1] read?
Answer: Its pKd is 8.10.

Question: With “GGGTTTGGGTTGGGTTGGGTTTTTGGGTTTGGGTTGGGTTGGGAAAAATTTTTCTCTCGC [Trident RHA06 + antisense 1:1]” as the sequence, how does the pKd ([2]; Trebler-joined arms, antisense DNA of RHA06 hybridised at AS:aptamer 1:1, one arm blocked) read?
Answer: Its pKd is 9.51.

Question: With “GGGTTTGGGTTGGGTTGGGTTTTTGGGTTTGGGTTGGGTTGGGAAAAATTTTTCTCTCGC [Trident RHA06 + antisense 2:1]” as the sequence, how does the pKd ([2]; Trebler-joined arms, antisense DNA of RHA06 hybridised at AS:aptamer 2:1, two arms blocked) read?
Answer: The pKd was 8.10.

Question: How did the pKd [3] turn out when “GGGTTTGGGTTGGGTTGGGTTTTTGGGTTTGGGTTGGGTTGGGAAAAATTTTTCTCTCGC [Trimeric (trident) RHA06]” was run?
Answer: The pKd was 10.15.

Question: What about the pKd [4] of the same sequence?
Answer: Its pKd is 9.89.

Question: What about the pKd ([2]; three identical arms (SEQ 12) joined by Trebler, root TTTTT-Biotin, RT) of the same sequence?
Answer: Its pKd is 10.05.

Question: What about the pKd ([1]; three identical arms (SEQ 12) joined by Trebler, root TTTTT-Biotin) of the same sequence?
Answer: Its pKd is 9.92.

Question: How did the pKd [5] turn out when “TTACGTCAAGGTGTCACTCCGTAGGGTTTGGCTCCGGGCCTGGCGTCGGTCGTCTCTCGCGAAGCATCTCTTTGGCGTGTTTTTTTTTTTTTTT [TMSA52]” was run?
Answer: Its pKd is under 9.30.
